Experimental data as given in patent publication US20130039936A1 (published 2013).
Read-outs that look alike come from different tables or passages of the source.

Assays:
[1] = molecular target: T1, HLA-A2 molecule on T2 cells (human); assay: T2 binding assay (flow cytometry, BB7.2 anti-HLA-A2 stain of peptide-loaded T2 cells)
T1 construct: also called HLA-A2.1; HLA-A2 molecules
Procedure: Peptide binding capacity to the HLA-A2 molecule was measured by using the T2 cell line according to a protocol described previously (Peters et al., Bioinformatics 19(14):1765-1772, 2003). […] Cells were washed once with cold HBSS containing 0.1% BSA and incubated for 30 minutes at 4° C. with anti-HLA-A2.1 BB7.2 monoclonal antibody (1:40 dilution from hybridoma supernatant). After washing, cells were stained with FITC-labeled goat anti-mouse immunoglobulin (BD, San Jose, Calif.), and the level of HLA expression was measured by flow cytometry. HLA-A2 expression was quantified as fluorescence index (FI) according to the following formula: FI=[(geometric mean fluorescence intensity with peptide-geometric mean fluorescence intensity without peptide)/geometric mean fluorescence intensity without peptide]. Background fluorescence without BB7.2 was subtracted for each individual value. To compare the different peptides, FI_{0.5}, the peptide concentration that increases HLA-A2.1 expression by 50% over no peptide control background, was calculated from the titration curve for each peptide. […]

[2] = molecular target: T1, HLA-A2 molecule on T2 cells; assay: as above; remark: listed apart in the source
Procedure: Background fluorescence without BB7.2 was subtracted for each individual value. To compare the different peptides, FI_{0.5} (the peptide concentration that increases HLA-A2.1 expression by 50% over no peptide control background) was calculated from the titration curve for each peptide. […] Each assay was performed in triplicate, and data in this figure are representative of two experiments with similar results.
(§1) Peptide binding capacity to the HLA-A2 molecule was measured by using the T2 cell line according to a protocol described previously (Peters et al., Bioinformatics 19(14):1765-1772, 2003). […] Cells were washed once with cold HBSS containing 0.1% BSA and incubated for 30 minutes at 4° C. with anti-HLA-A2.1 BB7.2 monoclonal antibody (1:40 dilution from hybridoma supernatant). After washing, cells were stained with FITC-labeled goat anti-mouse immunoglobulin (BD, San Jose, Calif.), and the level of HLA expression was measured by flow cytometry. HLA-A2 expression was quantified as fluorescence index (FI) according to the following formula: FI=[(geometric mean fluorescence intensity with peptide-geometric mean fluorescence intensity without peptide)/geometric mean fluorescence intensity without peptide]. Background fluorescence without BB7.2 was subtracted for each individual value. To compare the different peptides, FI_{0.5}, the peptide concentration that increases HLA-A2.1 expression by 50% over no peptide control background, was calculated from the titration curve for each peptide.
The binding affinity of the predicted peptides with HLA-A2 molecules was measured by the T2 binding assay.

[3] = molecular target: T1, HLA-A2 molecule on T2 cells; assay: T2 binding assay, FI0.5 against wild type POTE 252
Procedure: as §1

[4] = molecular target: T1, HLA-A2 molecule on T2 cells; assay: T2 binding assay, FI0.5 against wild type POTE 323
Procedure: as §1

Binder	FI0.5 [1]	further results
KLMAKALLL [POTE 252-260]	1.5 µM	FI0.5 [2]: 1.6 µM
KLMAKALLV [POTE 252-9V]	0.8 µM	fold lower FI0.5 than POTE 252 [3]: ~2 fold
KLMAKAALL [POTE 252-7A]	4 µM	
KILEEIESV [POTE 553-561]	2.6 µM	FI0.5 [2]: 5.6 µM
GLTPLLLGV [POTE 272-280]		FI0.5 [2]: 0.9 µM
LLLEQNVDV [POTE 323-331]	0.3 µM	FI0.5 [2]: 0.8 µM
LLLEQNADV [POTE 323-7A]	2.78 µM	
YLLEQNVDV [POTE 323-1Y]	0.25 µM	

More lines, main results first:

FI0.5 [1]	Binder	further results
16.9 µM	KLAAKALLL [POTE 252-3A]	
0.9 µM	YLMAKALLL [POTE 252-1Y]	fold lower FI0.5 than POTE 252 [3]: ~2 fold
1.5 µM	KLFAKALLL [POTE 252-3F]	
0.2 µM	KILEEIASV [POTE 553-7A]	
0.1 µM	KLLEEIESV [POTE 553-2L]	
0.3 µM	KIFEEIESV [POTE 553-3F]	
0.024 µM	YILEEIESV [POTE 553-1Y]	
0.09 µM	LLFEQNVDV [POTE 323-3F]	fold better FI0.5 than wild-type POTE 323 [4]: ~3 fold
0.4 µM	LLAEQNVDV [POTE 323-3A]	
